These results are taken from US20130337438A1 (JAPAN HEALTH SCIENCES FOUNDATION, published 2013).

The target of test [1] is T1, HPV51 L1/L2-capsid (human papillomavirus type 51, UniProt P26539 1-468; P26536 1-504).
T1 construct: Capsid of co-expressed L1 and L2 from 293FT cells; The pseudovirus is the same capsid with a reporter plasmid; also called L1/L2-capsid of type 51; HPV51 pseudovirus
T1 sequence 1: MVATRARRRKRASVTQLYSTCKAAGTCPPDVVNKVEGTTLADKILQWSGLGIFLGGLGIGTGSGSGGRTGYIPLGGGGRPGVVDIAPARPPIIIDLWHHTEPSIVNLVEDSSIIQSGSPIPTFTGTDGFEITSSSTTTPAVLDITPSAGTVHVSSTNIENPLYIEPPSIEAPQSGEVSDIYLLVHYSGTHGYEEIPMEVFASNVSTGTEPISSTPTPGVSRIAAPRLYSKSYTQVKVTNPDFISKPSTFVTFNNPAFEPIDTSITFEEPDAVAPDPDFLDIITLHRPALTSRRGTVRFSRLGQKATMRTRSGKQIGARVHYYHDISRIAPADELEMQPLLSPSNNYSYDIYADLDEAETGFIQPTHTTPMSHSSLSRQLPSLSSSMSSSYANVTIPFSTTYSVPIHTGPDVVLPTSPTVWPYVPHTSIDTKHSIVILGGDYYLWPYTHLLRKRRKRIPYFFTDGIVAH
T1 sequence 2: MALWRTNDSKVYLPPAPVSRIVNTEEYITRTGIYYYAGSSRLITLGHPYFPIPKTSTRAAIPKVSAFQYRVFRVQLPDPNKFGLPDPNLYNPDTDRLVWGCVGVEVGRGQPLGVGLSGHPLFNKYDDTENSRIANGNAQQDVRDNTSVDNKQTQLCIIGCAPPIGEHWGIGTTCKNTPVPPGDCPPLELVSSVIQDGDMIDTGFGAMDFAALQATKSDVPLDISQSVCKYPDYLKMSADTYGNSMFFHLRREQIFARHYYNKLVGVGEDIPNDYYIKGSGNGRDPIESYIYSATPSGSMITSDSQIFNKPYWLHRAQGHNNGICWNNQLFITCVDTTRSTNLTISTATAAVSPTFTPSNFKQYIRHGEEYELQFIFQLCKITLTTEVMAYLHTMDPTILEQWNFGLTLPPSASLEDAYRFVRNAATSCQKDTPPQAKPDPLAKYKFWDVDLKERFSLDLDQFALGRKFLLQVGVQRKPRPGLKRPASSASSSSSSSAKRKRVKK
Briefly: ELISA on immobilized L1/L2-capsid, purified antibody 250 ng/well.

The target of test [2] is T2, HPV33 L1/L2-capsid (human papillomavirus type 33, UniProt P06418 1-467; P06416 1-499).
T2 construct: Capsid of co-expressed L1 and L2 from 293FT cells; The pseudovirus is the same capsid with a reporter plasmid; also called L1/L2-capsid of type 33; HPV33 pseudovirus
T2 sequence 1: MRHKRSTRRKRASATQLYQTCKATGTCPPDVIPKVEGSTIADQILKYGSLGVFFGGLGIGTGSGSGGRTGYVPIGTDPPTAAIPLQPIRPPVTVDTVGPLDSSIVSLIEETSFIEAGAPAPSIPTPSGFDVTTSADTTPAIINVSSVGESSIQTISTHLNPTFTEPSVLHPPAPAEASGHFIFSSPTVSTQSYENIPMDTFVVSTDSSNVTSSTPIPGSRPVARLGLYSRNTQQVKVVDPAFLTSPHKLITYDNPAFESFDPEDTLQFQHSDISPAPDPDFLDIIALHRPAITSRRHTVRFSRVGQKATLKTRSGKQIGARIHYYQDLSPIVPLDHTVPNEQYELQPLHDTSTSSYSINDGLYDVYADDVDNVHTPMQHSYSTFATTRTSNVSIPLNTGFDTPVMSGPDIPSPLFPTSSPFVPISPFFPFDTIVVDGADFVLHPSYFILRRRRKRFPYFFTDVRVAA
T2 sequence 2: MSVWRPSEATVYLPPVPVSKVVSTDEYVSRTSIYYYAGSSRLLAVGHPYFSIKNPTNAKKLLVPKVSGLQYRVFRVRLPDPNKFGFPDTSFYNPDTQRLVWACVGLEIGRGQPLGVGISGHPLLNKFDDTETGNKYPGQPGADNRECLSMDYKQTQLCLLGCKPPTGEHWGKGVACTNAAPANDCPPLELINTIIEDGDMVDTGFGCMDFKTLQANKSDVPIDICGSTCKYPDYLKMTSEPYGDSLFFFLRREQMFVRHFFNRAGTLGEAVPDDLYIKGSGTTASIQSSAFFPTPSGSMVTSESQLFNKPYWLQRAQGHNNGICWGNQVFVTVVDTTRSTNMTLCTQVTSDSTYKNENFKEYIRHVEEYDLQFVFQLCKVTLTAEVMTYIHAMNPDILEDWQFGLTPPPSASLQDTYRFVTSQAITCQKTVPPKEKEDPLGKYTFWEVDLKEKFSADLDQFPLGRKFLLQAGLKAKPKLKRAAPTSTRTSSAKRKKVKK
The description is as above.

The target in test [3] is T1, HPV51 L1/L2-capsid. Briefly: ELISA on immobilized L1/L2-capsid, ascites 1:100.

B1: monoclonal antibody 13B (antibody, V domains shown)
VH: DVQLQESGPGLVKPSQSLSLSCTVTGYSITSDSAWNWIRQFPGNKLEWMGYITFSGSTNYNPSLKSRLSITRDTSKNQFFLQLNSVTTEDTATYYCTGPFLDYWGQGTTLTVSS
VL: DVVMTQTPLSLPVSLGDQATISCRSSLSLVLSNRITYLQWYLQKPGQSPKLLIYKVSNRFSGVPDRFSGSGSGTDFTLKISRVEAEDLGVYFCSQSSHFPWTFGGGTKLEIKR
notes: Used as mouse ascites or as antibody purified from ascites; also called Mouse-Mouse hybridoma 13B (FERM BP-11304)
B1: the binding result in test [1] and in test [2] was “binds” throughout.

B2: monoclonal antibody 24B (antibody, V domains shown)
VH: EVQLQQSGTVLARPGASVKMSCKASVYSFPSNWMHWVKQRPGQGLEWIGAIYPGTGATRYNQKFKDKAKLTAVTSADTAYMELSSLTDEDSAVYYCTGYSLYWGQGTILTVSS
VL: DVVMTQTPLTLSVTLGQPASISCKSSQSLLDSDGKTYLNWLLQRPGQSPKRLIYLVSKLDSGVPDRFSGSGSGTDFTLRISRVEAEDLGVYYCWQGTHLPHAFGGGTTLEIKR
notes: Used as mouse ascites or as antibody purified from ascites; also called Mouse-Mouse hybridoma 24B (FERM BP-11305)
B2: the binding result in test [3] was “binds”.
